Ends that are not written are not given here. PEGA1900 = not defined here
T1: β-body (2) TTYTYPGDTFTI (SEQ ID NO: 58) (with a fluorescent probe (2-F*) or on beads, by assay)
T1 construct: the assay field says which was which; also called 2-F*; bead-(2)
T1 peptide: TTYTYPGDTFTI

B1: β-body (3) TFTFTFPGLTRTHT (SEQ ID NO: 59) (designed binder)
peptide: TFTFTFPGLTRTHT
modifications: also: with a fluorescent probe, place not given here
notes: The text calls it a modified version of (2); also called fluorescent-(3)
B2: hexapeptide HRMVRG (SEQ ID NO: 4) (peptide)
peptide: HRMVRG-PEGA1900
modifications: reading uncertain
notes: also called HRMVRG-PEGA1900; hexapeptide partner
B3: β-body KTGTQNLTGPGRTHTQTATEG (SEQ ID NO: 3) (peptide)
peptide: KTGTQNLTGPGRTHTQTATEG
notes: Found from a one-bead-one-compound library K(TX)4PG(XT)4EG

What was measured:
[1] = target: T1, β-body (2) TTYTYPGDTFTI (SEQ ID NO: 58); experiment: fluorescent β-body on beads modified with (2)
[2] = target: T2, Enhanced Green Fluorescent Protein (UniProt P42212 1-238 = GFP); experiment: green fluorescence on HRMVRG-PEGA1900 beads
T2 construct: treated as one molecule; also called EGFP; eGFP

[3] = target: B2; experiment: pairs of beads of two libraries adhering to each other, identified by MSMS
Experimental: This example illustrates how to identify a β-body recognizing a linear peptide. A split-mix library of 21.000.000 β-bodies according to the invention were prepared by combinatorial synthesis as described in Example 4 above. This was performed on 100 μm beads with no fluorescence. A second split mix library of 470.000 hexapeptides were prepared in a similar manner except that this library was prepared on larger 400 μm beads with fluorescence label attached to some functional groups. The two libraries were mixed and pairs of beads adhering to each other in pairs with one large fluorescent and one small non-fluorescent bead were collected and the two peptides were identified by MSMS. […] EGFP is an abbreviation of Enhanced Green Fluorescent Protein.

B1
fold reduction of binding against fluorescent-(1) [1]: 7 fold

B2
binding result [2]: no binding

B3
binding result [3]: binds

Source: US20190284243A1 (UNIVERSITY OF COPENHAGEN, published 2019)
